Measured values from US20240383984A1 (Genentech, published 2024).

Experiments:
human CD3ε = target: T1, human CD3ε (human, UniProt P07766 23-126, limits assumed); experiment: BIACORE and Scatchard, monovalent
T1 construct: also called hCD3ε

[1] = target: T2, human FcRH5 (full-length, on cells) (human, UniProt Q96RD9 16-977); experiment: flow cytometry, SVT2 cells
T2 construct: Transfected SVT2/293 cells or endogenous expression (MOLP-2, primary cells); also called SVT2-FcRH5; SVT2-huFcRH5
T2 sequence: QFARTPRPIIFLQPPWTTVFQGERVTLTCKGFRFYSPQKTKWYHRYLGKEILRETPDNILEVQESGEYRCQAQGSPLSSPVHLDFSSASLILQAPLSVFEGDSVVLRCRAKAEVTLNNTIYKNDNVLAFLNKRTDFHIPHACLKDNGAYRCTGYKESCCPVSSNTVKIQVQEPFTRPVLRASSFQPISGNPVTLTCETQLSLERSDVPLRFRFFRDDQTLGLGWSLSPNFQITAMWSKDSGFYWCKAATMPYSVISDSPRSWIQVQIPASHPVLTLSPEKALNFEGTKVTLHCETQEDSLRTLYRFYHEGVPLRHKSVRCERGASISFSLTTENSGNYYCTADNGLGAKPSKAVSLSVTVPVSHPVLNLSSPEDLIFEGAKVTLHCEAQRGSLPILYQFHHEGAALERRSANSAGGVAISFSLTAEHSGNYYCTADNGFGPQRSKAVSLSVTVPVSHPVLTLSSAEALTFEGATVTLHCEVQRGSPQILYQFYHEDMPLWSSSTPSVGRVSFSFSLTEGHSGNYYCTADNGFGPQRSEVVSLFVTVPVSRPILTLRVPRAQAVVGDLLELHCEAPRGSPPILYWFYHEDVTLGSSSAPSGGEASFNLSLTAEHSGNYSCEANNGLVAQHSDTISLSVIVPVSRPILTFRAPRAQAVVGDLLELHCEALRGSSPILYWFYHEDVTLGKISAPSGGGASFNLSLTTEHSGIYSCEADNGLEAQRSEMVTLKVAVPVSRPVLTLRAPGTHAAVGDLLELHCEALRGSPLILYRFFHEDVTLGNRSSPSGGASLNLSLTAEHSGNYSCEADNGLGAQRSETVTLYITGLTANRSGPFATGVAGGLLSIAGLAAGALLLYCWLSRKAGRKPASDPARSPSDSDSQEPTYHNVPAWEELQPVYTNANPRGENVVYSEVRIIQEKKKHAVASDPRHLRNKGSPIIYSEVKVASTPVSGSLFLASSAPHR
Description: (§1) Human FcRH5, cyno FcRH5, human FcRH1, FcRH2, FcRH3, and FcRH4 transfected mouse SVT2 cells were used to test binding and cross-reactivity of FcRH5 TDBs. The method was carried out as follows. Cultured SVT2 cells were lifted using non-enzyme cell dissociation buffer (Sigma, #C5914). 1×10⁵ cells were suspended in 100 μL and incubated with FcRH5 TDBs at 3 μg/ml. […] Cells were washed twice with FACS buffer before flow cytometry analysis was carried out on a FACSCalibur.

[2] = target: T3, human FcRH3 (full-length, on SVT2 cells) (human, UniProt Q96P31 18-734); experiment: flow cytometry, SVT2 cells
T3 construct: whole, on cells; also called SVT2-FcRH3
T3 sequence (looked up): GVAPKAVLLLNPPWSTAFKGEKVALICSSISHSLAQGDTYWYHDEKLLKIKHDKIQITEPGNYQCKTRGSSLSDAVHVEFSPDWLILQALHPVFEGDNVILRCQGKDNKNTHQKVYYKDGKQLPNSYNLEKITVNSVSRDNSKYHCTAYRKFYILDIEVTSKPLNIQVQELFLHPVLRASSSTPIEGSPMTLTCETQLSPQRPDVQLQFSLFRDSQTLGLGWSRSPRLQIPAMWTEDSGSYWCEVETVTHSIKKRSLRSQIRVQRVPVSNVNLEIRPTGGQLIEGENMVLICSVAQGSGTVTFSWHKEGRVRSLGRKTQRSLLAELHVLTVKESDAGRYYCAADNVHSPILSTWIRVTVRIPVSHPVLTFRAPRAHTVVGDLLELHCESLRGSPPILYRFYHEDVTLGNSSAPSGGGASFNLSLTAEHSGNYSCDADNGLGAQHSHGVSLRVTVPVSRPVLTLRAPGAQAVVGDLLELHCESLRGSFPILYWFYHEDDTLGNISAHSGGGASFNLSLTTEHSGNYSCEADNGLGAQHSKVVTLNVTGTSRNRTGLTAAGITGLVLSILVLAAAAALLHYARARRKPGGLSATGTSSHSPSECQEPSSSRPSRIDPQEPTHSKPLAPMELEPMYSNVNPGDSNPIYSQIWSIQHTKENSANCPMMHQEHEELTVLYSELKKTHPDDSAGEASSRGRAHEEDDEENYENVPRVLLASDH
Description: as §1

T1 sequence (P07766 23-126 limits assumed): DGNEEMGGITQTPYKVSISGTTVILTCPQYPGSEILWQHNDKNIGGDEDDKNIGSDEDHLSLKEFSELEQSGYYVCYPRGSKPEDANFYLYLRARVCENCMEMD

B1: UCHT1.v9 (antibody, V domains shown)
VH: EVQLVESGGGLVQPGGSLRLSCAASGYSFTGYTMNWVRQAPGKDLEWVALINPYKGVSTYNQKFKDRFTISVDKSKNTAYLQMNSLRAEDTAVYYCARSGYYGDSDWYFDVWGQGTLVTVSS
VL: DIQMTQSPSSLSASVGDRVTITCRASQDIRNYLNWYQQKPGKAPKLLIYYTSRLESGVPSRFSGSGSGTDYTLTISSLQPEDFATYYCQQGNTLPWTFGQGTKLELK
notes: humanized anti-CD3; also called huUCHT1.v9
- Kd (human CD3ε): 2.5 nM

B2: hu1G7.v87/38E4.v1 TDB (bispecific antibody, V domains shown)
VH 1: EVQLVESGPGLVKPSETLSLTCTVSGFSLTRFGVHWVRQPPGKGLEWLGVIWRGGSTDYNAAFVSRLTISKDNSKNQVSLKLSSVTAADTAVYYCSNHYYGSSDYALDNWGQGTLVTVSS
VL 1: DIQMTQSPSSLSASVGDRVTITCKASQDVSNIVVWFQQKPGKSPKLLIYSASYRYTGVPSRFSGSGSGTDFTLTISSLQPEDFATYYCQQHYSSPYTFGQGTKVEIK
VH 2: EVQLVQSGAEVKKPGASVKVSCKASGFTFTSYYIHWVRQAPGQGLEWIGWIYPENDNTKYNEKFKDRVTITADTSTSTAYLELSSLRSEDTAVYYCARDGYSRYYFDYWGQGTLVTVSS
VL 2: DIVMTQSPDSLAVSLGERATINCKSSQSLLNSRTRKNYLAWYQQKPGQSPKLLIYWTSTRKSGVPDRFSGSGSGTDFTLTISSLQAEDVAVYYCKQSFILRTFGQGTKVEIK
notes: knob-into-hole TDB; also called 1G7.v87 TDB
- binding result [1]: binds
- binding result [2]: no binding
